This test addresses T1, M1-linked tetra-ubiquitin (UniProt P0CG48 1-76; P0CG48 1-76; P0CG48 1-76; P0CG48 1-76, M1-linked).
T1 construct: ubiquitin, first of four head-to-tail repeats; ubiquitin, second repeat; ubiquitin, third repeat; ubiquitin, fourth repeat; also called M1-linked chains
The experiment in a line: pull-down; GST fusion held on glutathione agarose, incubated with 0.5 μg of an individual tetra-ubiquitin chain, 2 h at 4 °C; 150 mM NaCl, 50 mM Tris pH 7.5, 0.1% IGEPAL, 5 mM DTT, 0.25 mg/mL BSA; immunoblotted for GST and ubiquitin. Particulars: both partners purified.

B1: GST-TNK1-UBA (domain or fragment, human, UniProt Q13470 585-666, looked up)
chain: LLSDPELQRKIMEVELSVHGVTHQECQTALGATGGDVVSAIRNLKVDQLFHLSSRSRADCWRILEHYQWDLSAASRYVLARP
notes: TNK1, human, amino acid 585 to 666 (UBA domain), in pGEX-6P-1; also called GST-tagged recombinant TNK1 UBA; source: E. coli BL21; held on glutathione agarose and washed (pull-down); lysate loaded on anti-GST biosensors (BLI); not shown: GST, N-terminal, kept
With B1, the binding result is listed as “binds”.

(Values after article PMC8429728 (Nature Communications, 2021).)
